The values that follow come from patent US20250179143A1, “SYSTEMS AND METHODS FOR CHAPERONE-MEDIATED LIGAND EXCHANGE ON MHC-I AND MHC-RELATED MOLECULES USING CHICKEN TAPBPR” (priority 2022, published 2025).

Experiment [1] has as its target 1G4 TCR. Put plainly: flow cytometry; PE tetramer (1 µg/mL) on human T cells transduced with the 1G4 TCR; tetramer from TAPBPR-catalysed peptide exchange; no percent sign printed.
Experiment [2] has as its target 1G4 TCR. Put plainly: flow cytometry; PE tetramer (1 µg/mL) on human T cells transduced with the 1G4 TCR; tetramer from conventional refolding; no percent sign printed. (A flow cytometer gives signals particle by particle.)
Experiment [3] concerns the target 1G4 TCR. Put plainly: flow cytometry; PE tetramer (1 µg/mL) on human T cells transduced with the 1G4 TCR; negative control; no percent sign printed.
The target of experiment [4] is peptide-deficient (empty) HLA-A*02:01/hb2m (human). Put plainly: SPR, TAPBPR-biotin on streptavidin chip, UV-irradiated (empty) HLA as analyte. Background: SPR reads the build-up and loss of mass on a sensor chip optically.
The target of experiment [5] is peptide-deficient (empty) HLA-A*68:02/hb2m (human). Described as above.
The target of experiment [6] is peptide-deficient (empty) HLA-G*01:01/hb2m (human). The experiment is described as above.
For experiment [7], the target named is peptide-deficient (empty) HLA-A*29:02/hb2m (human). The experiment is described as above.
In experiment [8] the target is peptide-deficient (empty) HLA-B*08:01/hb2m (human) (UniProt P01889). The experiment is described as above.
Experiment [9] addresses peptide-deficient (empty) HLA-A*11:01/hb2m (human). The description is as above.
Experiment [10] deals with peptide-deficient (empty) HLA-A*01:01/hb2m (human). The experiment is described as above.
The target of experiment [11] is peptide-deficient (empty) HLA-A*24:02/hb2m (human). The description is as above.
In experiment [12] the target is peptide-deficient (empty) HLA-B*37:01/hb2m (human). The description is as above.
In experiment [13] the target is peptide-deficient (empty) HLA-A*30:01/hb2m (human). Described as above.
Experiment [14] has as its target HLA-B*08:01/hb2m/FLRGRAJGL (peptide-loaded) (human).
Experiment [15] has as its target MR1 C262S loaded with acetyl-6-formylpterin (Ac-6-FP) (UniProt Q95460). Put plainly: SPR, TAPBPR-biotin on streptavidin chip, Ac-6-FP loaded MR1 C262S as analyte.
Experiment [16] addresses HLA-A*24:02/hb2m/VYGJVRACL (peptide-loaded) (human). Put plainly: SPR; HLA-A*24:02/[..], 0.1 to 10 µM, over chicken TAPBPR-biotin on a streptavidin chip; kinetic fit.
Experiment [17] has the same target. Put plainly: SPR, TAPBPR-biotin on streptavidin chip, peptide-loaded HLA as analyte.
Experiment [18] concerns the target HLA-A*29:02/hb2m/VFAQVKQJY (peptide-loaded) (human). The experiment is described as above.
Experiment [19] concerns the target HLA-F*01:01/hb2m/LILRWE(bF)D (human). Put plainly: SPR; HLA-F*01:01/hb2m/LILRWE(bF)D, 0.0625 to 2 µM, over chTAPBPR-biotin on a streptavidin chip; kinetic fit.
Experiment [20] addresses HLA-A*01:01/hb2m/STAPGJLEY (peptide-loaded) (human). Put plainly: cell-based or functional assay.
Experiment [21] addresses MR1 C262S loaded with acetyl-6-formylpterin (Ac-6-FP) (UniProt Q95460). Put plainly: SPR; MR1 C262S/Ac-6-FP, 10 to 100 µM, over hTAPBPR^KRQ-biotin on a streptavidin chip; steady-state fit in the inset.
For experiment [22] the target is unchanged. Put plainly: SPR; MR1 C262S/Ac-6-FP, 10 to 100 µM, over hTAPBPR^RQ-biotin on a streptavidin chip; steady-state fit in the inset.

As usually defined, the Kd is a measure of binding affinity in units of concentration.

Substance “Exchanged A2/M4A (NY-ESO-1) (from UniProt A*02:01) (peptide-MHC)” registered a tet+ (share of events in the tetramer-positive live gate) in the experiment with 1G4 TCR [1] of 38.7.

Consider “Exchanged A2/W5A (NY-ESO-1) (from UniProt A*02:01) (peptide-MHC)”, for which the tet+ (share of events in the tetramer-positive live gate) with 1G4 TCR [1] worked out at 2.18.

In the case of “Exchanged S1A (NY-ESO-1) (from UniProt A*02:01) (peptide-MHC)”, in the experiment with 1G4 TCR [1], the tet+ (share of events in the tetramer-positive live gate) stood at 72.1.

On to “NY-ESO-1 (HLA-A*02:01/… tetramer) (peptide-MHC)”, for which the tet+ (share of events in the tetramer-positive live gate) in the experiment with 1G4 TCR [1] turned out to be 71.4; with 1G4 TCR [2], 78.7.

In the experiment with 1G4 TCR [3], “Refolded Rubella (from UniProt A*02:01) (peptide-MHC)” came in with a tet+ (share of events in the tetramer-positive live gate) of 0.75.

Consider “chicken TAPBPR luminal domain (chTAPBPR)”, for which the Kd amounted to 2960 nM in experiment [4]; 430 nM in experiment [5]; 11.2 µM in experiment [6]; 290 nM in [7]; 1890 nM in experiment [8]; 910 nM in [9]. The Kd in [10] was found to be 1460 nM; in experiment [11], 1680 nM; in [12] it was 2190 nM; in experiment [13], 1280 nM; in experiment [15], 19.2 µM; in experiment [16], 370 nM. Besides, the dissociation constant Kd in [17] stood at 17.4 µM; in experiment [18] it was 170 nM; in experiment [19], 760 nM. In experiment [14], this substance came in with a -TΔS of -11.5 kcal/mol. The same substance had a ΔG in experiment [14] of -4.5 kcal/mol. Also, in experiment [14], the ΔH is 7 kcal/mol. Further, the kapp of fluorescent peptide binding at 5 uM chaperone (FP) in [20] stood at 0.00017 s⁻¹.

With “hTAPBPR^KRQ (R105K, K211R, R270Q) (from UniProt Q9BX59 22-405)”, in experiment [21], the dissociation constant (Kd) was found to be 62 µM.

Substance “hTAPBPR^RQ (K211R, R270Q) (from UniProt Q9BX59 22-405)” gave a dissociation constant (Kd) in experiment [22] of 49.5 µM. This lies in the double-digit micromolar range.

In the case of “human TAPBPR luminal domain (hTAPBPR) (from UniProt Q9BX59 22-405)”, the Kd in experiment [15] came out at 98.7 µM. This lies in the double-digit micromolar range.
